This data set concerns the molecule itself. Description: dynamic light scattering; free peptide without lipid; DLS at 20 °C in CD buffer (10 mM Na-phosphate, 100 mM Na2SO4, pH 7.0); the methods give 20 or 40 µM peptide for the DLS samples.

Ends that are not written are not given here.

This is an account of results in publication PMC8395313, “Membrane Association Modes of Natural Anticancer Peptides: Mechanistic Details on Helicity, Orientation, and Surface Coverage” (International Journal of Molecular Sciences, 2021).

B1: Temporin-La (peptide)
peptide: LLRHVVKILEKYL-NH2
notes: 13 residues; MW = 1622.6 as printed in the methods; also called Tempo-La; TEMPO-LA; source: synthetic peptide (NovoPro Bioscience Inc., Shanghai; purity >= 95%)
Regarding B1, the binding result is “binds”.
